IntAct's records for PubMed 20562859

Key:
atg10_human ATG10 = atg10_human ATG10 (UniProt Q9H0Y0)
atg3_human ATG3 = atg3_human ATG3 (UniProt Q9NT62)
echa_human HADHA = echa_human HADHA (UniProt P40939)
kbtb6_human KBTBD6 = biological target: T1, kbtb6_human KBTBD6 (UniProt Q86V97)
T1 sequence: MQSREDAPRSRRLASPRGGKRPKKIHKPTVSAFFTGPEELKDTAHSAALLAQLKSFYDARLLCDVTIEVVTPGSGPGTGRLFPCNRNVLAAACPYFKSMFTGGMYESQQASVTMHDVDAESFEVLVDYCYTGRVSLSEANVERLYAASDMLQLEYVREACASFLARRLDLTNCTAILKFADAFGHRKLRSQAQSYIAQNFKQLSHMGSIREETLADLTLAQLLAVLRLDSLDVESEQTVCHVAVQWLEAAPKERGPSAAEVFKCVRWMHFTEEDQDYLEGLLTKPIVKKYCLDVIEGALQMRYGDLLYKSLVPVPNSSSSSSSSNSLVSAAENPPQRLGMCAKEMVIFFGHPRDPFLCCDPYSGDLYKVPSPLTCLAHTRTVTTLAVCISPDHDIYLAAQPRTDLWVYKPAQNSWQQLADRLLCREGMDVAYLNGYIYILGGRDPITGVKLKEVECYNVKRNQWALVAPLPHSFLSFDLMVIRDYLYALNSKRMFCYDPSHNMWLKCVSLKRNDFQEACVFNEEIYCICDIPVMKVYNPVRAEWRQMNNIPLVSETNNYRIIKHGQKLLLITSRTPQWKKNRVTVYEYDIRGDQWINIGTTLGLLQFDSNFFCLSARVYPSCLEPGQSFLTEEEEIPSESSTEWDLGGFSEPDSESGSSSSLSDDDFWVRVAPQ

kbtb7_human KBTBD7 = biological target: T2, kbtb7_human KBTBD7 (UniProt Q8WVZ9)
T2 sequence: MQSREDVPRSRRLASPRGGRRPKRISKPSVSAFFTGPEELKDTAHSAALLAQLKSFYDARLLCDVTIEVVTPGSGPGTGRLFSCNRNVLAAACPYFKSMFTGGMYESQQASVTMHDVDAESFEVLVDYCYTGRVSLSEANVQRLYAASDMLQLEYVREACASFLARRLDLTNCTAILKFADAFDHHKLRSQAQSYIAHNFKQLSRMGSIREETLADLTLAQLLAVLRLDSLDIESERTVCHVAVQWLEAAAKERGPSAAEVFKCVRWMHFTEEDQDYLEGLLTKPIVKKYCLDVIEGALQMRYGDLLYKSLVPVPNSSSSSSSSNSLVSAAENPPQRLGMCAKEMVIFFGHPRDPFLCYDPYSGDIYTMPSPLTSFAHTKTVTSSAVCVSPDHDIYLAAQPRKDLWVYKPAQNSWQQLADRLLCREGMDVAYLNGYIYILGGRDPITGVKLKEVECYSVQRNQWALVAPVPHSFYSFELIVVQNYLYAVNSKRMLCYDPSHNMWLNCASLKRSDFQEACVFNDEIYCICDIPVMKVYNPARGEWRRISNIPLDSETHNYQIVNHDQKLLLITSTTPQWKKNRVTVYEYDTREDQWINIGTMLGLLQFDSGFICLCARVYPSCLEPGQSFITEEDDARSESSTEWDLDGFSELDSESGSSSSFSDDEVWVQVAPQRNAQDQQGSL

rasf3_human RASSF3 = biological target: T3, rasf3_human RASSF3 (UniProt Q86WH2)
T3 sequence: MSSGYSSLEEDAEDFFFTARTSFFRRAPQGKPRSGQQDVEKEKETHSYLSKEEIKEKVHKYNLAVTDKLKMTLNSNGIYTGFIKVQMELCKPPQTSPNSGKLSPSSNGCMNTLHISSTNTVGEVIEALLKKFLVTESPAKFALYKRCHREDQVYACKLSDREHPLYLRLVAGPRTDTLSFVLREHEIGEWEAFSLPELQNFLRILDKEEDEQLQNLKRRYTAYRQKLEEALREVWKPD

stk3_human STK3 = biological target: T4, stk3_human STK3 (UniProt Q13188)
T4 sequence: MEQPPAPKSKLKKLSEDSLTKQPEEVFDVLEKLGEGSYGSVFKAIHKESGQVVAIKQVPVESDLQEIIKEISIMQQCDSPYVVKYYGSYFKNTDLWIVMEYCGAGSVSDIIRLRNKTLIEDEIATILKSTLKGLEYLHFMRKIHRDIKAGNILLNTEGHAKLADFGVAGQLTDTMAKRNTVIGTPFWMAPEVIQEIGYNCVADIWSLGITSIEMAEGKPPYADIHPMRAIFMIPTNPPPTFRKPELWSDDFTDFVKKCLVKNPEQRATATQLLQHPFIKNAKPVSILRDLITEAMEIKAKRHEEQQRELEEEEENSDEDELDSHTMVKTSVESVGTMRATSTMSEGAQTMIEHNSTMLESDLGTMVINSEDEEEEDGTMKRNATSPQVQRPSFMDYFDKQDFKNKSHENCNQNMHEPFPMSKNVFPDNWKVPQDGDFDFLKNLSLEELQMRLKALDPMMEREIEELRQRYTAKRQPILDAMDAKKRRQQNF

tbc15_human TBC1D15 = biological target: T5, tbc15_human TBC1D15 (UniProt Q8TC07)
T5 sequence: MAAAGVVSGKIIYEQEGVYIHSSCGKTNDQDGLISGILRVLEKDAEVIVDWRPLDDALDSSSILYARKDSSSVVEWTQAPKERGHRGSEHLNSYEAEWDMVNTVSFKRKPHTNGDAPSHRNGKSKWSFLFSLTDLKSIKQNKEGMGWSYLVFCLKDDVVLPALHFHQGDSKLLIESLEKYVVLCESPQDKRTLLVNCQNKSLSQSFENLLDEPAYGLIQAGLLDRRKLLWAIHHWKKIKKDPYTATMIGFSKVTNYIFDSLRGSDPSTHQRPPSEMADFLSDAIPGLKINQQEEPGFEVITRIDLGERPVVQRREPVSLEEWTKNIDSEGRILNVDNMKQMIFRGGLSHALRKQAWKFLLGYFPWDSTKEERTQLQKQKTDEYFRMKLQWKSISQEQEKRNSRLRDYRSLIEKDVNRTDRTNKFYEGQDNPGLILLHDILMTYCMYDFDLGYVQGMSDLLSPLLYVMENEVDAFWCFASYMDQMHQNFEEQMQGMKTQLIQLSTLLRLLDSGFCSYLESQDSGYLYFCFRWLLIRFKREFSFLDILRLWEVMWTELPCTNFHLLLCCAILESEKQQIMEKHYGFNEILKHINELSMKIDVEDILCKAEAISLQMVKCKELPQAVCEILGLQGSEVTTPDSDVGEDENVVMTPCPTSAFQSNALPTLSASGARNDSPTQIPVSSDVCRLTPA

Chain of atg10_human ATG10 (Q9H0Y0 whole entry): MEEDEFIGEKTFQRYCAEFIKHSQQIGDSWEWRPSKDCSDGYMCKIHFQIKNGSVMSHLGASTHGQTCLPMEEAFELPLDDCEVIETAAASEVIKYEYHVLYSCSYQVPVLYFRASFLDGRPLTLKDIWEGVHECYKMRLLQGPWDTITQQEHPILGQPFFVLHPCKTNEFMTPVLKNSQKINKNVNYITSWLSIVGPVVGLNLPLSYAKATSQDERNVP
Chain of atg3_human ATG3 (Q9NT62 whole entry): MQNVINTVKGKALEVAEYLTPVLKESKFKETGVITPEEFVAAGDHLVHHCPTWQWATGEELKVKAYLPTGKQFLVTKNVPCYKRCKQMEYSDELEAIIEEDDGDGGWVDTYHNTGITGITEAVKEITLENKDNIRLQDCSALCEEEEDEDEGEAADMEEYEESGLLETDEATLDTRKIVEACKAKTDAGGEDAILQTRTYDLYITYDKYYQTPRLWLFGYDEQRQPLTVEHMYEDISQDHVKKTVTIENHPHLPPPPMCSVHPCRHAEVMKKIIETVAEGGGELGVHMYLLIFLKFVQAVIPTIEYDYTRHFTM
Chain of echa_human HADHA (P40939 whole entry): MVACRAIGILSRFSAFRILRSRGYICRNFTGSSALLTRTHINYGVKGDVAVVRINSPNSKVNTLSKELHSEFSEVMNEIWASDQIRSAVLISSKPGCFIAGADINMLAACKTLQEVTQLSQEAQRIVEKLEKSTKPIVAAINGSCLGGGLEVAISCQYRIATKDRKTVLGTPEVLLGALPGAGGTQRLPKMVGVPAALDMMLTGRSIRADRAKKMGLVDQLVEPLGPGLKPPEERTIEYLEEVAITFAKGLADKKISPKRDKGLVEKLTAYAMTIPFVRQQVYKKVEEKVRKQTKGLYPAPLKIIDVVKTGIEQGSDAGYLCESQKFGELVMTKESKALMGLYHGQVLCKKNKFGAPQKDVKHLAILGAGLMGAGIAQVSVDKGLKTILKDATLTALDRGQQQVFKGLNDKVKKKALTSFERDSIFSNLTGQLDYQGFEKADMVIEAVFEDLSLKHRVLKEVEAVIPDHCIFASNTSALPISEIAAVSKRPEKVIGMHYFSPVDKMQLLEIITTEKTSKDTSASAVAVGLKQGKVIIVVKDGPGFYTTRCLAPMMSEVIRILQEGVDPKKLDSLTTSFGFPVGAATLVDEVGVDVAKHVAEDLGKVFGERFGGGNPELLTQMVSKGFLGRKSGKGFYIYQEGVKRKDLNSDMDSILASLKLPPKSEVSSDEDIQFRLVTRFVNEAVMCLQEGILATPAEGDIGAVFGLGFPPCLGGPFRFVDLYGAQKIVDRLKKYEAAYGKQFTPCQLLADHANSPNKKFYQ

| effect of a mutation on the interaction (atg10_human ATG10) | effect of a mutation on the interaction (atg3_human ATG3) | effect of a mutation on the interaction (echa_human HADHA) | effect of a mutation on the interaction (kbtb6_human KBTBD6) | effect of a mutation on the interaction (kbtb7_human KBTBD7) | effect of a mutation on the interaction (rasf3_human RASSF3) | effect of a mutation on the interaction (stk3_human STK3) | effect of a mutation on the interaction (tbc15_human TBC1D15) | Substance |
| --- | --- | --- | --- | --- | --- | --- | --- | --- |
| increasing interaction | disrupting interaction | increasing interaction | decreasing interaction | decreasing interaction | increasing interaction | increasing interaction | decreasing interaction | Microtubule-associated protein 1 light chain 3 beta (Homo sapiens) (from UniProt Q9GZQ8) F52A;L53A |
| decreasing interaction | disrupting interaction | disrupting interaction | disrupting interaction | disrupting interaction | decreasing interaction | decreasing interaction | decreasing interaction | Microtubule-associated protein 1 light chain 3 beta (Homo sapiens) (from UniProt Q9GZQ8) R69A |
